Measurements taken from patent publication US12679878B2, “CRF2 receptor agonists and their use in therapy” (SANOFI, priority 2020, dated 2026).
Starred links: 1 amine or outer side, 2 acyl side, 3 side chain; linkers in the order of their positions; H or OH if unused. Non-standard residues stand in square brackets, D forms with d. Groups on a side chain read outwards from the residue. No end group written: not given here. *: point of attachment. C18 diacid = O=C(O)CCCCCCCCCCCCCCCCC(=O)*; γGlu = O=C(O)[C@H](CCC(=O)[*:2])N[*:1]; Palmitoyl = CCCCCCCCCCCCCCCC(=O)*; AEEA = NCCOCCOCC(=O)O; Aib = CC(C)(N)C(=O)O

B1: SEQ ID NO: 145 (peptide)
peptide: FTLSLDVPTKIK([AEEA-AEEA-γGlu-C18 diacid])QILLKQERQKKQRQKAKKNKQILERV-NH2
modifications: N-terminus assumed
SMILES: CC[C@H](C)[C@H](NC(=O)[C@H](CCC(N)=O)NC(=O)[C@H](CCCCN)NC(=O)[C@H](CC(N)=O)NC(=O)[C@H](CCCCN)NC(=O)[C@H](CCCCN)NC(=O)[C@H](C)NC(=O)[C@H](CCCCN)NC(=O)[C@H](CCC(N)=O)NC(=O)[C@H](CCCNC(=N)N)NC(=O)[C@H](CCC(N)=O)NC(=O)[C@H](CCCCN)NC(=O)[C@H](CCCCN)NC(=O)[C@H](CCC(N)=O)NC(=O)[C@H](CCCNC(=N)N)NC(=O)[C@H](CCC(=O)O)NC(=O)[C@H](CCC(N)=O)NC(=O)[C@H](CCCCN)NC(=O)[C@H](CC(C)C)NC(=O)[C@H](CC(C)C)NC(=O)[C@@H](NC(=O)[C@H](CCC(N)=O)NC(=O)[C@H](CCCCNC(=O)COCCOCCNC(=O)COCCOCCNC(=O)CC[C@H](NC(=O)CCCCCCCCCCCCCCCCC(=O)O)C(=O)O)NC(=O)[C@@H](NC(=O)[C@H](CCCCN)NC(=O)[C@@H](NC(=O)[C@@H]1CCCN1C(=O)[C@@H](NC(=O)[C@H](CC(=O)O)NC(=O)[C@H](CC(C)C)NC(=O)[C@H](CO)NC(=O)[C@H](CC(C)C)NC(=O)[C@@H](NC(=O)[C@@H](N)Cc1ccccc1)[C@@H](C)O)C(C)C)[C@@H](C)O)[C@@H](C)CC)[C@@H](C)CC)C(=O)N[C@@H](CC(C)C)C(=O)N[C@@H](CCC(=O)O)C(=O)N[C@@H](CCCNC(=N)N)C(=O)N[C@H](C(N)=O)C(C)C
B2: SEQ ID NO: 144 (peptide)
peptide: FTLSLDVPTKIK([AEEA-AEEA-γGlu-C18 diacid])QILLKQERQKKQRQKAKTNKQILERV-NH2
modifications: N-terminus assumed
SMILES: CC[C@H](C)[C@H](NC(=O)[C@H](CCC(N)=O)NC(=O)[C@H](CCCCN)NC(=O)[C@H](CC(N)=O)NC(=O)[C@@H](NC(=O)[C@H](CCCCN)NC(=O)[C@H](C)NC(=O)[C@H](CCCCN)NC(=O)[C@H](CCC(N)=O)NC(=O)[C@H](CCCNC(=N)N)NC(=O)[C@H](CCC(N)=O)NC(=O)[C@H](CCCCN)NC(=O)[C@H](CCCCN)NC(=O)[C@H](CCC(N)=O)NC(=O)[C@H](CCCNC(=N)N)NC(=O)[C@H](CCC(=O)O)NC(=O)[C@H](CCC(N)=O)NC(=O)[C@H](CCCCN)NC(=O)[C@H](CC(C)C)NC(=O)[C@H](CC(C)C)NC(=O)[C@@H](NC(=O)[C@H](CCC(N)=O)NC(=O)[C@H](CCCCNC(=O)COCCOCCNC(=O)COCCOCCNC(=O)CC[C@H](NC(=O)CCCCCCCCCCCCCCCCC(=O)O)C(=O)O)NC(=O)[C@@H](NC(=O)[C@H](CCCCN)NC(=O)[C@@H](NC(=O)[C@@H]1CCCN1C(=O)[C@@H](NC(=O)[C@H](CC(=O)O)NC(=O)[C@H](CC(C)C)NC(=O)[C@H](CO)NC(=O)[C@H](CC(C)C)NC(=O)[C@@H](NC(=O)[C@@H](N)Cc1ccccc1)[C@@H](C)O)C(C)C)[C@@H](C)O)[C@@H](C)CC)[C@@H](C)CC)[C@@H](C)O)C(=O)N[C@@H](CC(C)C)C(=O)N[C@@H](CCC(=O)O)C(=O)N[C@@H](CCCNC(=N)N)C(=O)N[C@H](C(N)=O)C(C)C
B3: SEQ ID NO: 146 (peptide)
peptide: FTLSLDVPIKLK([AEEA-AEEA-γGlu-C18 diacid])QILLKQERQKKQRQKAKKNKQILERV-NH2
modifications: N-terminus assumed
SMILES: CC[C@H](C)[C@H](NC(=O)[C@H](CCC(N)=O)NC(=O)[C@H](CCCCNC(=O)COCCOCCNC(=O)COCCOCCNC(=O)CC[C@H](NC(=O)CCCCCCCCCCCCCCCCC(=O)O)C(=O)O)NC(=O)[C@H](CC(C)C)NC(=O)[C@H](CCCCN)NC(=O)[C@@H](NC(=O)[C@@H]1CCCN1C(=O)[C@@H](NC(=O)[C@H](CC(=O)O)NC(=O)[C@H](CC(C)C)NC(=O)[C@H](CO)NC(=O)[C@H](CC(C)C)NC(=O)[C@@H](NC(=O)[C@@H](N)Cc1ccccc1)[C@@H](C)O)C(C)C)[C@@H](C)CC)C(=O)N[C@@H](CC(C)C)C(=O)N[C@@H](CC(C)C)C(=O)N[C@@H](CCCCN)C(=O)N[C@@H](CCC(N)=O)C(=O)N[C@@H](CCC(=O)O)C(=O)N[C@@H](CCCNC(=N)N)C(=O)N[C@@H](CCC(N)=O)C(=O)N[C@@H](CCCCN)C(=O)N[C@@H](CCCCN)C(=O)N[C@@H](CCC(N)=O)C(=O)N[C@@H](CCCNC(=N)N)C(=O)N[C@@H](CCC(N)=O)C(=O)N[C@@H](CCCCN)C(=O)N[C@@H](C)C(=O)N[C@@H](CCCCN)C(=O)N[C@@H](CCCCN)C(=O)N[C@@H](CC(N)=O)C(=O)N[C@@H](CCCCN)C(=O)N[C@@H](CCC(N)=O)C(=O)N[C@H](C(=O)N[C@@H](CC(C)C)C(=O)N[C@@H](CCC(=O)O)C(=O)N[C@@H](CCCNC(=N)N)C(=O)N[C@H](C(N)=O)C(C)C)[C@@H](C)CC
B4: SEQ ID NO: 142 (peptide)
peptide: IVLSLD[dV]PIKLK([AEEA-AEEA-γGlu-C18 diacid])QILLEQARQK[Aib]QREQAEKNKRILERV-NH2
modifications: N-terminus assumed
SMILES: CC[C@H](C)[C@H](N)C(=O)N[C@H](C(=O)N[C@@H](CC(C)C)C(=O)N[C@@H](CO)C(=O)N[C@@H](CC(C)C)C(=O)N[C@@H](CC(=O)O)C(=O)N[C@@H](C(=O)N1CCC[C@H]1C(=O)N[C@H](C(=O)N[C@@H](CCCCN)C(=O)N[C@@H](CC(C)C)C(=O)N[C@@H](CCCCNC(=O)COCCOCCNC(=O)COCCOCCNC(=O)CC[C@H](NC(=O)CCCCCCCCCCCCCCCCC(=O)O)C(=O)O)C(=O)N[C@@H](CCC(N)=O)C(=O)N[C@H](C(=O)N[C@@H](CC(C)C)C(=O)N[C@@H](CC(C)C)C(=O)N[C@@H](CCC(=O)O)C(=O)N[C@@H](CCC(N)=O)C(=O)N[C@@H](C)C(=O)N[C@@H](CCCNC(=N)N)C(=O)N[C@@H](CCC(N)=O)C(=O)N[C@@H](CCCCN)C(=O)NC(C)(C)C(=O)N[C@@H](CCC(N)=O)C(=O)N[C@@H](CCCNC(=N)N)C(=O)N[C@@H](CCC(=O)O)C(=O)N[C@@H](CCC(N)=O)C(=O)N[C@@H](C)C(=O)N[C@@H](CCC(=O)O)C(=O)N[C@@H](CCCCN)C(=O)N[C@@H](CC(N)=O)C(=O)N[C@@H](CCCCN)C(=O)N[C@@H](CCCNC(=N)N)C(=O)N[C@H](C(=O)N[C@@H](CC(C)C)C(=O)N[C@@H](CCC(=O)O)C(=O)N[C@@H](CCCNC(=N)N)C(=O)N[C@H](C(N)=O)C(C)C)[C@@H](C)CC)[C@@H](C)CC)[C@@H](C)CC)C(C)C)C(C)C
B5: SEQ ID NO: 143 (peptide)
peptide: FTLSLDVPTKIK([AEEA-AEEA-γGlu-C18 diacid])QILLKQEKQKKQRQKAKTNKQILERV-NH2
modifications: N-terminus assumed
SMILES: CC[C@H](C)[C@H](NC(=O)[C@H](CCC(N)=O)NC(=O)[C@H](CCCCN)NC(=O)[C@H](CC(N)=O)NC(=O)[C@@H](NC(=O)[C@H](CCCCN)NC(=O)[C@H](C)NC(=O)[C@H](CCCCN)NC(=O)[C@H](CCC(N)=O)NC(=O)[C@H](CCCNC(=N)N)NC(=O)[C@H](CCC(N)=O)NC(=O)[C@H](CCCCN)NC(=O)[C@H](CCCCN)NC(=O)[C@H](CCC(N)=O)NC(=O)[C@H](CCCCN)NC(=O)[C@H](CCC(=O)O)NC(=O)[C@H](CCC(N)=O)NC(=O)[C@H](CCCCN)NC(=O)[C@H](CC(C)C)NC(=O)[C@H](CC(C)C)NC(=O)[C@@H](NC(=O)[C@H](CCC(N)=O)NC(=O)[C@H](CCCCNC(=O)COCCOCCNC(=O)COCCOCCNC(=O)CC[C@H](NC(=O)CCCCCCCCCCCCCCCCC(=O)O)C(=O)O)NC(=O)[C@@H](NC(=O)[C@H](CCCCN)NC(=O)[C@@H](NC(=O)[C@@H]1CCCN1C(=O)[C@@H](NC(=O)[C@H](CC(=O)O)NC(=O)[C@H](CC(C)C)NC(=O)[C@H](CO)NC(=O)[C@H](CC(C)C)NC(=O)[C@@H](NC(=O)[C@@H](N)Cc1ccccc1)[C@@H](C)O)C(C)C)[C@@H](C)O)[C@@H](C)CC)[C@@H](C)CC)[C@@H](C)O)C(=O)N[C@@H](CC(C)C)C(=O)N[C@@H](CCC(=O)O)C(=O)N[C@@H](CCCNC(=N)N)C(=O)N[C@H](C(N)=O)C(C)C
B6: SEQ ID NO: 15 (peptide)
peptide: FTLSLDVPTKIK([γGlu-Palmitoyl])QKLFKQAKQKKQRQKAKTNAQILARV-NH2
modifications: N-terminus assumed
SMILES: CCCCCCCCCCCCCCCC(=O)N[C@@H](CCC(=O)NCCCC[C@H](NC(=O)[C@@H](NC(=O)[C@H](CCCCN)NC(=O)[C@@H](NC(=O)[C@@H]1CCCN1C(=O)[C@@H](NC(=O)[C@H](CC(=O)O)NC(=O)[C@H](CC(C)C)NC(=O)[C@H](CO)NC(=O)[C@H](CC(C)C)NC(=O)[C@@H](NC(=O)[C@@H](N)Cc1ccccc1)[C@@H](C)O)C(C)C)[C@@H](C)O)[C@@H](C)CC)C(=O)N[C@@H](CCC(N)=O)C(=O)N[C@@H](CCCCN)C(=O)N[C@@H](CC(C)C)C(=O)N[C@@H](Cc1ccccc1)C(=O)N[C@@H](CCCCN)C(=O)N[C@@H](CCC(N)=O)C(=O)N[C@@H](C)C(=O)N[C@@H](CCCCN)C(=O)N[C@@H](CCC(N)=O)C(=O)N[C@@H](CCCCN)C(=O)N[C@@H](CCCCN)C(=O)N[C@@H](CCC(N)=O)C(=O)N[C@@H](CCCNC(=N)N)C(=O)N[C@@H](CCC(N)=O)C(=O)N[C@@H](CCCCN)C(=O)N[C@@H](C)C(=O)N[C@@H](CCCCN)C(=O)N[C@H](C(=O)N[C@@H](CC(N)=O)C(=O)N[C@@H](C)C(=O)N[C@@H](CCC(N)=O)C(=O)N[C@H](C(=O)N[C@@H](CC(C)C)C(=O)N[C@@H](C)C(=O)N[C@@H](CCCNC(=N)N)C(=O)N[C@H](C(N)=O)C(C)C)[C@@H](C)CC)[C@@H](C)O)C(=O)O

What follows are binders tested against human corticotropin-releasing factor 2α (CRF2 α receptor) (human), Q13324 (assay: cell-based or functional assay).
human corticotropin-releasing factor 2α (CRF2 α receptor) (human), Q13324, sequence (Q13324 20-411): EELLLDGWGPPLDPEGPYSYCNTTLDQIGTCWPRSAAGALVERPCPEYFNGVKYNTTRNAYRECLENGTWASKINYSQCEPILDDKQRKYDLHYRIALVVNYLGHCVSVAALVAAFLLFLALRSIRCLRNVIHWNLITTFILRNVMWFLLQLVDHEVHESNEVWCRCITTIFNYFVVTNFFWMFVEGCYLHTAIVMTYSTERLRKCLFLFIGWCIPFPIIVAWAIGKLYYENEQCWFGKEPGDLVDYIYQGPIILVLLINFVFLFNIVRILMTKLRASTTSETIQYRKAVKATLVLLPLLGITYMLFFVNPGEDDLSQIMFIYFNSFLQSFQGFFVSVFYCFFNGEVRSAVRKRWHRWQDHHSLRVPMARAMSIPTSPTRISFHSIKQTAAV

Point of comparison: B1, EC50 [nM], 0% HSA 1.46 nM. Against it:
- B2 — within 1.5-fold, 1.36 nM
- B3 — 13-fold lower, 0.11 nM
- B4 — 29-fold lower, 0.05 nM
- B5 — within 1.5-fold, 1.44 nM
- B6 — 1.7-fold lower, 0.88 nM

Point of comparison: B5, EC50 [nM], 0.1% HSA 93.8 nM. Against it:
- B1 — within 1.5-fold, 96.9 nM
- B2 — within 1.5-fold, 76.3 nM
- B3 — 22-fold lower, 4.36 nM
- B4 — 66-fold lower, 1.42 nM
